Experimental data reported in patent US20210244762A1 (AUTOLUS, published 2021).

Target: T1, Recombinant TGFbRII-Fc protein (R&D systems) (human, UniProt P37173 23-159)
T1 construct: Bought reagent; also called TGFβRII-Fc; TGFβRII-human Fc; not shown: Fc part; human Fc by the names 'TGFβRII-human Fc' / 'TGFbRII-hFc' and the anti-human capture kit; isotype and limits not
Test: SPR (Biacore 8K), TGFbRII-Fc captured by anti-human capture kit on CM5, VHH as analyte, 1:1 Langmuir fit, 25 °C
Text: The binding kinetics of these four dAbs for TGFβRII was then investigated using Biacore affinity analysis and the results are shown in Table 3 below.
Recombinant TGFbRII-Fc protein (R&D systems) was immobilised on individual flow cells on a Series S CM5 sensor chip (GE Healthcare) previously functionalised with anti-human capture kit, to a density of 150-200 RU using a Biacore 8K instrument. HBS-P⁺ buffer was used as running buffer is all experimental conditions. Recombinant purified VHH antibodies at known concentrations were used as the ‘analyte’ and injected over the respective flow cells with 150 s contact time and 600s dissociation at […] of flow rate with a constant temperature of 25° C. In each experiment, flow cell 1 was unmodified and used for reference subtraction. A ‘0 concentration’ sensorgram of buffer alone was used as a double reference subtraction to factor for drift. Data were fit to a 1:1 Langmuir binding model using local Rmax.

T1 sequence (P37173 23-159 limits assumed): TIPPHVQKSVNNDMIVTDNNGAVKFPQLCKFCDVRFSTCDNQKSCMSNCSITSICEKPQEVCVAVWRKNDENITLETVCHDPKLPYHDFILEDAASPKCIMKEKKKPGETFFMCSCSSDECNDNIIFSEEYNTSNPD

- Kd: 67.2 nM
- koff: 0.119 s⁻¹
- kon: 1.77e+06 M⁻¹ s⁻¹
B1: anti-TGFβRII single domain antibody (dAb) clone H3 (VHH)
VHH: QVQLQQSGGGLVQAGGSLRLACAASGRSFSIYGITWFRQAPGKEREFVAAITGSGLTTNYADSVKGRFTISRDNAKNMVYLQLNSLKPDDTAVYYCAATRAYSGYYGENPTRYAYWGQGTQVTVS
notes: H3 is the one clone not 'related' to the other three; also called dAb H3; anti-TGFbRII VHH H3
